The text below walks through data of US20250250355A1 (BIOSION, published 2025).

In one assay the target is human SIRPγ-his protein (human, UniProt Q9P1W8 29-360, limits assumed). As to the kind of experiment: SPR (Biacore T200), antibody captured on Protein A chip, human SIRPγ-his flowed. Background: In SPR one partner is held on a chip, and binding of the other changes the refractive index at the surface.
For assay [1], the target named is human FcRn protein (Cat #FCM-H5286, Acro biosystems Inc.) (human, UniProt P55899 24-297; P61769 21-119). As to the kind of experiment: SPR (Biacore); human FcRn covalently linked to CM5 chip, antibody flowed from 62.5 µg/ml; pH 6.0; pH 6.0.
Assay [2] deals with T1, cynomolgus SIRPα-his protein (cynomolgus).
T1 construct: also called Cyno SIRPα-his; monkey SIRPα
T1 chain: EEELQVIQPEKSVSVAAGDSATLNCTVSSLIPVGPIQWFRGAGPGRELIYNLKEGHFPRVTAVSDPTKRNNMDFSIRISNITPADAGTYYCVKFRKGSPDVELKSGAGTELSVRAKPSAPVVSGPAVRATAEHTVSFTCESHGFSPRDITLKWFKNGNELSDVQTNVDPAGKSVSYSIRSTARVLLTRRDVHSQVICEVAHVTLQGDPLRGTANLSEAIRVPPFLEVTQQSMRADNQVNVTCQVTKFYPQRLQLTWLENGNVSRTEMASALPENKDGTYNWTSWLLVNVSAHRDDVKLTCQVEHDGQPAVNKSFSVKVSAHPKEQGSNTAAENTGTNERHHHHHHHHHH
As to the kind of experiment: indirect ELISA on coated cynomolgus SIRPα-his, OD(450-630); curve flat at the baseline (see non_binding). A general note: In an ELISA, binding on a coated surface is turned into a signal by an enzyme label.

Assay [3] has as its target T2, human SIRPα-his protein (human, UniProt P78324 31-370). Kind of assay: SPR (Biacore T200); antibody captured on Protein A chip, human SIRPα-his flowed from 200 nM; 1:1 Langmuir fit.
Assay [4] deals with T3, full length human SIRPβ on cell membranes (HEK293-SIRPβ cells; 293F cells expressing human SIRPβ) (human, UniProt O00241 30-398).
T3 construct: whole, on cells; also called cell surface human SIRPβ
Kind of assay: cell based binding FACS on 293F cells expressing human SIRPβ, MFI.

In another assay the target is human SIRPβ-his protein (human, UniProt O00241 30-371). As to the kind of experiment: SPR (Biacore T200); antibody captured on Protein A chip, human SIRPβ-his flowed from 200 nM; 1:1 Langmuir fit.
In assay [5] the target is T4, full length human SIRPα on cell membranes (HEK293-SIRPα cells; 293F-SIRPα cells) (human, UniProt P78324 31-504).
T4 construct: whole, on cells; also called cell surface human SIRPα; cell surface SIRPα
Kind of assay: cell based blocking FACS on 293F-SIRPα cells; blocked ligand: human CD47 protein (CD47-Fc), MFI.

Assay [6] has as its target human SIRPα-isoform 2-his protein (human). Kind of assay: indirect ELISA on coated human SIRPα-isoform 2-his, OD(450-630).
The target of assay [7] is T4, full length human SIRPα on cell …. Kind of assay: cell based binding FACS on 293F cells expressing human SIRPα, MFI.
The target of assay [8] is T5, human SIRPα-V8-his protein (human, UniProt P78324 31-370, limits assumed). As to the kind of experiment: indirect ELISA on coated human SIRPα-V8-his, OD(450-630).
Assay [9] addresses T6, full length human SIRPγ endogenously expressed on Jurkat cells (human, UniProt Q9P1W8 29-387).
T6 construct: whole, on cells; also called human SIRPγ expressed on Jurkat cells
As to the kind of experiment: cell based binding FACS on Jurkat cells (endogenous human SIRPγ), MFI; curve flat at MFI about 35 up to about 13 nM, rises to about 185 only at the last point (about 67 nM); paragraph 213 says no binding.

The target in assay [10] is T7, human SIRPα protein (soluble, used on 293F-CD47 cells) (human, UniProt P78324 31-370, limits assumed). As to the kind of experiment: cell based blocking FACS on 293F-CD47 cells; soluble human SIRPα protein blocked from binding cell surface human CD47, MFI.
For assay [11], the target named is T8, mouse SIRPα-his (mouse, UniProt P97797 35-363, limits assumed).
T8 chain: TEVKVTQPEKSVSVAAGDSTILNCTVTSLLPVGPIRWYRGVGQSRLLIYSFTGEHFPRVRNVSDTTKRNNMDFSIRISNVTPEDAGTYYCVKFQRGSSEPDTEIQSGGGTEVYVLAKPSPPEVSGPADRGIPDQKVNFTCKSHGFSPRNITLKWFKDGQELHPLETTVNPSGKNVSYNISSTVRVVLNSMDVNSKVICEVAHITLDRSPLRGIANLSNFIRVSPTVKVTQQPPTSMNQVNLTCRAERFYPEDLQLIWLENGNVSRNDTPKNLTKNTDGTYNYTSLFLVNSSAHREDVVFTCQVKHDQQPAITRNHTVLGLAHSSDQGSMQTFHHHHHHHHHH
Kind of assay: indirect ELISA on coated mouse SIRPα-his, OD(450-630).

Assay [12] concerns the target human SIRPα-isoform 2-his protein (human). As to the kind of experiment: indirect ELISA on coated human SIRPα-isoform 2-his, OD(450-630). The source holds these as a separate data set.
The target is the same in assay [13]. As to the kind of experiment: indirect ELISA on coated human SIRPα-isoform 2-his, OD(450-630); plateau at OD about 1.0.
For assay [14], the target named is T4, full length human SIRPα on cell …. As to the kind of experiment: cell based blocking FACS on 293F-SIRPα cells; blocked ligand: human CD47 protein (CD47-Fc), MFI. The source holds these as a separate data set.
Assay [15] has as its target T3, full length human SIRPβ on cell …. As to the kind of experiment: cell based binding FACS on HEK293-SIRPβ cells, MFI; curve not visible in the scan.
Assay [16] addresses T6, full length human SIRPγ endogenously …. As to the kind of experiment: cell based binding FACS on Jurkat cells (endogenous human SIRPγ), MFI; plateau at MFI about 325.
Assay [17] deals with T8, mouse SIRPα-his. As to the kind of experiment: indirect ELISA on coated mouse SIRPα-his, OD(450-630).
The target of assay [18] is T4, full length human SIRPα on cell …. Kind of assay: cell based binding FACS on 293F cells expressing human SIRPα, MFI. This is another data set of the same source.
The target of assay [19] is T6, full length human SIRPγ endogenously …. Kind of assay: cell based binding FACS on Jurkat cells (endogenous human SIRPγ), MFI; plateau at MFI about 330.
Assay [20] has as its target T2, human SIRPα-his protein. As to the kind of experiment: competitive ELISA on coated human SIRPα-his; blocked ligand: biotin-labeled human CD47-his, OD(450-630).
Assay [21] has as its target T5, human SIRPα-V8-his protein. Kind of assay: indirect ELISA on coated human SIRPα-V8-his, OD(450-630); curve not visible in the scan.
Assay [22] concerns the target T6, full length human SIRPγ endogenously …. As to the kind of experiment: cell based binding FACS on Jurkat cells (endogenous human SIRPγ), MFI; curve not visible in the scan.
The target in assay [23] is T9, recombinant human SIRPα-Fc protein (human, biotin-labeled (sites not given)).
T9 construct: also called biotin-labeled human SIRPα-Fc protein
Kind of assay: capture ELISA, antibody captured on anti-mouse IgG F(ab')2, biotin-labeled human SIRPα-Fc in solution, OD(450-630).

For assay [24], the target named is T7, human SIRPα protein (soluble, used on …). As to the kind of experiment: cell based blocking FACS on 293F-CD47 cells; soluble human SIRPα protein blocked from binding cell surface human CD47, MFI. The source holds these as a separate data set.
For assay [25], the target named is T3, full length human SIRPβ on cell …. As to the kind of experiment: cell based binding FACS on 293F cells expressing human SIRPβ, MFI. This is another data set of the same source.
Assay [26] concerns the target T4, full length human SIRPα on cell …. Kind of assay: cell based binding FACS on HEK293-SIRPα cells, MFI; curve not visible in the scan.

Like-named read-outs stand apart in the source and are kept apart here.

B1: E1F1B1C3-CDRV1-IgG1 (antibody)
heavy: not shown
light: DIQVTQSPSSLSASVGDRVTITCRASQSISDFLNWYQQKPGKAPKLLIHAASSLQAGVPSRFSGSGSGTDFSLTINSLQPEDFATYYCQQSYSTPLSFGGGTKVEIKRTVAAPSVFIFPPSDEQLKSGTASVVCLLNNFYPREAKVQWKVDNALQSGNSQESVTEQDSKDSTYSLSSTLTLSKADYEKHKVYACEVTHQGLSSPVTKSFNRGEC
Broadly, the Kd is the constant that tells how readily two partners part at equilibrium. A lower Kd goes with a tighter complex. What is called EC50 is the concentration that produces a half-maximal response. In general, koff refers to the first-order rate constant of dissociation. A higher koff goes with a short-lived complex. Broadly, the kon is the second-order rate constant of association. Read a low kon as slower complex formation. For orientation: IC50 means the concentration at which inhibition is half-maximal. A higher IC50 goes with weaker potency. Regarding B1, the binding result with human SIRPγ-his protein is “no binding (tested: antigen starting at 200 nM)”; in the assay with mouse SIRPα-his [11], “no binding (tested: ~67 nM)”. In addition, the Kd in assay [1] is 56.7 nM; in the assay with human SIRPα-his protein [3], 0.344 nM; with human SIRPβ-his protein, 1.17 nM. The EC50 in [2] is ~2930 nM; in assay [4] it was 0.248 nM; in [6] it was 0.129 nM; in assay [7], 0.27 nM; in [8], 0.148 nM; in assay [9], ~954 nM. The figures for the koff in the assay with human SIRPα-his protein [3] and in the assay with human SIRPβ-his protein were 0.000402 s⁻¹ and 0.000907 s⁻¹, respectively. Moreover, the kon is 1.17e+06 M⁻¹ s⁻¹ in the assay with human SIRPα-his protein [3] and 773000 M⁻¹ s⁻¹ with human SIRPβ-his protein. Further, the IC50 amounted to 0.488 nM in assay [5] and 0.27 nM in [10].

B2: KWAR23 (antibody, human IgG4 S228P, kappa, V domains shown)
VH: EVQLQQSGAELVKPGASVKLSCTASGFNIKDYYIHWVQQRTEQGLEWIGRIDPEDGETKYAPKFQDKATITADTSSNTAYLHLSSLTSEDTAVYYCARWGAYWGQGTLVTVSA
VL: QIVLTQSPAIMSASPGEKVTLTCSASSSVSSSYLYWYQQKPGSSPKLWIYSTSNLASGVPARFSGSGSGTSYSLTISSMEAEDAASYFCHQWSSYPRTFGAGTKLELKR
notes: also called BM
As to B2, the EC50 in [12] was 0.409 nM; in assay [13], 0.436 nM; in assay [15], 0.272 nM; in [4], 0.156 nM; in [16], 0.00761 nM; in assay [18], 0.307 nM. Further, the EC50 in assay [19] worked out at 0.00724 nM; in assay [21], 0.339 nM; in assay [22], 0.0102 nM; in [6] it was 0.307 nM; in assay [7], 0.309 nM; in [23] it was 0.0774 nM. Further, the figures for the EC50 in assay [8], in [25] and in assay [26] were 0.255 nM, 0.164 nM and 0.383 nM, respectively. The IC50 was 0.731 nM in assay [14]; 0.753 nM in [5]; 2 nM in the assay with human SIRPα-his protein [20]; 0.241 nM in assay [24]; 0.25 nM in [10]. Besides, the binding result in the assay with mouse SIRPα-his [17] is reported as “no binding (tested: ~67 nM)”.
